The target in assay [1] is Flk-1-Fc (mouse vascular endothelial growth factor receptor-2 Fc chimera) (mouse) (UniProt P35918). The assay can be described thus: radioactive equilibrium binding assay, % bound at 1 nM Flk-1-Fc.
Assay [2] deals with T1, human vascular endothelial growth factor receptor-2 Fc chimera (KDR-Fc) (human, UniProt P35968 20-764).
T1 construct: range 1-764; Purchased from R&D Systems; also called hKDR; human VEGF-R2-Fc; not shown: human IgG1 Fc
Put plainly: radioactive equilibrium binding, 1 nM KDR-Fc. Here is the method:
(§1) To prepare ³⁵S-labeled binding proteins for analysis, mRNA was prepared as described above for RNA-protein fusion production but the linker ligation step was omitted. The mRNA was expressed using rabbit reticulocyte lysate translation kit (Ambion) in the presence of ³⁵S-labeled Met at 30° C. for 1 hour. Expressed protein was purified on M2-agarose Flag beads (Sigma) as described above. This procedure produced the encoded protein without the nucleic acid tail. In a direct binding assay, VEGF-R2-Fc fusions in concentrations ranging from 0 to 200 nM were added to a constant concentration of the purified protein (0.2 or 0.5 nM) and incubated at 30° C. for 1 hour in buffer B. The receptor-binder complexes were captured using Protein A magnetic beads for another 10 minutes at room temperature using a Kingfisher™ The beads were washed with six reaction volumes of buffer B. The protein was eluted from the beads with 100 μL of 0.1 M KOH. 50 μL of the reaction mixture and elution were dried onto a LumaPlate-96 (Packard) and the amount of ³⁵S on the plate was measured using a TopCount NXT instrument (Packard). The amount of fibronectin-based scaffold protein bound to the target was estimated as a percent of radioactivity eluted from Protein A magnetic beads compare to radioactivity in the reaction mixture. Nonspecific binding of fibronectin-based scaffold proteins to the beads was determined by measuring binding in the absence of KDR-Fc and represented less than 1-2% of the input. Specific binding was obtained through subtraction of nonspecific binding from total binding. Data was analyzed using the GraphPad Prizm software (GraphPad Software, Inc, San Diego, Calif.), fitted using a one site, non-linear binding equation.

Assay [3] has as its target T2, Flk-1-Fc (mouse vascular endothelial growth factor receptor-2 Fc chimera) (mouse, UniProt P35918 20-762).
T2 construct: Bought from R&D Systems; also called mouse VEGFR-2-Fc; Fc part of the bought chimera not given
Put plainly: radioactive equilibrium binding assay, % bound at 1 nM Flk-1-Fc. Here is the method:
as §1

Assay [4] concerns the target T3, Flk-1-Fc (mouse vascular endothelial growth factor receptor-2 Fc chimera) (mouse, UniProt P35918 20-762).
T3 construct: Purchased from R&D Systems; also called mouse VEGF-R2-Fc; not shown: Fc part of the purchased chimera
The assay can be described thus: method not given.

T1 sequence (P35968 20-764 limits assumed, change not shown, form in doubt): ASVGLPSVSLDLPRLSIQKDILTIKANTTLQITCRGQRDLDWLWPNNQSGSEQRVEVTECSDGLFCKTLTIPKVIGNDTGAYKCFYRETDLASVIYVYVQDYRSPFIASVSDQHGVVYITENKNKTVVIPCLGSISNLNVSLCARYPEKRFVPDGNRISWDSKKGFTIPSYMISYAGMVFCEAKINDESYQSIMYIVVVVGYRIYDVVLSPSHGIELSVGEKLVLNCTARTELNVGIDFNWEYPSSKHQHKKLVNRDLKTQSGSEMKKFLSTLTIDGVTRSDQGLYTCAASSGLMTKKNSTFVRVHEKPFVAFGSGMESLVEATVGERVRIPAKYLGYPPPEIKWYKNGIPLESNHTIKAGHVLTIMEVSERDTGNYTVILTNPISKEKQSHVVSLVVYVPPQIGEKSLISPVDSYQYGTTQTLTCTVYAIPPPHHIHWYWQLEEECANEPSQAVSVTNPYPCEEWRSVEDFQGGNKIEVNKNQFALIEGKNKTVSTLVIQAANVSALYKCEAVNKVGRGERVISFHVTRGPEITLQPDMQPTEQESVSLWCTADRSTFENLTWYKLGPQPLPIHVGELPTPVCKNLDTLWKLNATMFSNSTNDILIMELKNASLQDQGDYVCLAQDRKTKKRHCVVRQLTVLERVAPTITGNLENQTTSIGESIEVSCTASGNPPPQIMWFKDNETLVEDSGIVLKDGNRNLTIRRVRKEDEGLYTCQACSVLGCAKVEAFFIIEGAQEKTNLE
Chain of Flk-1-Fc (mouse vascular endothelial growth factor receptor-2 Fc chimera) (mouse) (P35918 20-762, change not shown): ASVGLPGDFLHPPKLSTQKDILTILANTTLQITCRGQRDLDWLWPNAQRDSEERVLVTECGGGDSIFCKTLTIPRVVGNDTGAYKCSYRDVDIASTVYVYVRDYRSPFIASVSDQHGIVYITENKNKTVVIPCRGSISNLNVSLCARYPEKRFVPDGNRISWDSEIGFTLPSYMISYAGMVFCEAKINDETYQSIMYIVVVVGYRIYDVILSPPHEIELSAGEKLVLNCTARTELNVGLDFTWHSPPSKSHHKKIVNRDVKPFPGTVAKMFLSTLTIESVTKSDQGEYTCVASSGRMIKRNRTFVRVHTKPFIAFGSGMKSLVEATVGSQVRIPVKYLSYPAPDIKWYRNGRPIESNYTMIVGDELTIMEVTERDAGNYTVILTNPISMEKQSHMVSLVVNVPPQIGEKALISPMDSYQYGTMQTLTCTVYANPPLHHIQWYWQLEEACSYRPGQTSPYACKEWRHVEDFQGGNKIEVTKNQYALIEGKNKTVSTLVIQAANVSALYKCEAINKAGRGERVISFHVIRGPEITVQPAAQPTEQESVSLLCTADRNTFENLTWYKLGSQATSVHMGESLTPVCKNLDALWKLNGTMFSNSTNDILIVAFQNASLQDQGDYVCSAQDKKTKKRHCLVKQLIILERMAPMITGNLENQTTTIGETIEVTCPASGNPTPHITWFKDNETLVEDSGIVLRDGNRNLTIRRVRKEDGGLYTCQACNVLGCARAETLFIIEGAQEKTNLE

B1: EGE11 (SEQ ID NO: 87) (designed binder)
chain: EVVAATPTSLLISWRHPHFPTRYYRITYGETGGNSPVQEFTVPLQPPTATISGLKPGVDYTITGYAVTMGKNDRELLTPISINYRT
For the molecule B1, the Binding to 1 nM Flk-1, % in assay [1] amounted to 1%.

B2: 4′G8 PR4 (designed binder)
chain: EVVAATPTSLLISWRHPHFPTRYYRITYGETGGNSPVQEFTVPLQPPTATISGLKPGVDYTITVYAVTVAQNGHELLTPISINYRT
notes: in vitro translated
For B2, the “Binding to 1 nM KDR, %” value in assay [2] worked out at 13%.

B3: 3′D4 PR4 (designed binder)
chain: EVVAATPTSLLISWRHPHFPTRYYRITYGETGGNSPVQEFTVPLQPPTATISGLKPGVDYTITVYAVTLAHNDRELITPISINYRT
notes: in vitro translated
In the case of B3, the “Binding to 1 nM KDR, %” value in assay [2] amounted to 12%.

B4: 3′E8 PR4 (designed binder)
chain: EVVAATPTSLLISWRHPHFPTRYYRITYGETGGNSPVQEFTVPLQPPTATISGLKPGVDYTITVYAVTVAQNDRQLFTPISINYRT
notes: in vitro translated
As to B4, the “Binding to 1 nM KDR, %” value in assay [2] turned out to be 12%.

B5: 3E6 PR3 (designed binder)
chain: EVVAATPTSLLISWRHPHFPTRYYRITYGETGGNSPVQEFTVPLQPPTATISGLKPGVDYTITVYAVTVPQNGHELITMISINYRT
notes: in vitro translated
Consider B5, for which the “Binding to 1 nM KDR, %” value in assay [2] is 12%.

B6: 4A4 PR3 (designed binder)
chain: EVVAATPTSLLISWRHPHFPTRYYRITYGETGGNSPVQEFTVPLQPPTATISGLKPGVDYTITVYAVTVAQNDHELFTPISINYRT
notes: in vitro translated
For B6, in assay [2], the “Binding to 1 nM KDR, %” value came out at 10%.

B7: 3D11 PR3 (designed binder)
chain: EVVAATPTSLLISWRHPHFPTRYYRITYGETGGNSPVQEFTVPLQPPTATISGLKPGVDYTITVYAVTLGQENQELITPISINYRT
notes: in vitro translated
As for B7, the “Binding to 1 nM KDR, %” value in assay [2] is 10%.

B8: 3H9 PR3 (designed binder)
chain: EVVAATPTSLLISWRHPHFPTRYYRITYGETGGNSPVQEFTVPLQPPTATISGLKPGVDYTITVYAVTVSQQNHELLTPISINYRT
notes: in vitro translated
Consider B8, for which the “Binding to 1 nM KDR, %” value in assay [2] turned out to be 11%.

B9: 3C5 PR3 (designed binder)
chain: EVVAATPTSLLISWRHPHFPTRYYRITYGETGGNSPVQEFTVPLQPPTATISGLKPGVDYTITVYAVTGDHNDRELMTPISINYRT
notes: in vitro translated
For B9, in assay [2], the “Binding to 1 nM KDR, %” value was 12%.

B10: G1 (designed binder)
chain: EVVAATPTSLLISWRHPHFPTRYYRITYGETGGNSPVQEFTVPLQPPTATISGLKPGVDYTITGYAVTEGRNGRELMVPISINYRT
notes: 10Fn3 clone, Del 1-8
For the molecule B10, the “Binding to 1 nM Flk-1, %” value in assay [3] turned out to be 2%.

B11: 3F11 PR3 (designed binder)
chain: EVVAATPTSLLISWRHPHFPTRYYRITYGETGGNSPVQEFTVPLQPPTATISGLKPGVDYTITVYAVTVGLTDHVLLTPISINYRT
notes: in vitro translated
In the case of B11, in assay [2], the “Binding to 1 nM KDR, %” value stood at 10%.

B12: B11 (designed binder)
chain: EVVAATPTSLLISWRHPHFPTRYYRITYGETGGNSPVQEFTVPLQPPTATISGLKPGVDYTITGYAVTVERNGRELKTPISINYRT
notes: 10Fn3 clone, Del 1-8
For the molecule B12, in assay [3], the “Binding to 1 nM Flk-1, %” value was 21%.

B13: B12 (designed binder)
chain: EVVAATPTSLLISWRHPHFPTRYYRITYGETGGNSPVQEFTVPLQPPTATISGLKPGVDYTITGYAVTVERNGRELRTPISINYRT
notes: 10Fn3 clone, Del 1-8
With B13, in assay [3], the “Binding to 1 nM Flk-1, %” value is 21%.

B14: 4′B6 PR4 (designed binder)
chain: EVVAATPTSLLISWRHPHFPTRYYRITYGETGGNSPVQEFTVPLQPPTATISGLKPGVDYTITVYAVTLAQNDHELITPISINYRT
notes: in vitro translated
For the molecule B14, in assay [2], the “Binding to 1 nM KDR, %” value is 11%.

B15: 4C4 PR3 (designed binder)
chain: EVVAATPTSLLISWRHPHFPTRYYRITYGETGGNSPVQEFTVPLQPPTATISGLKPGVDYTITVYAVTVAQDDHELFTPISINYRT
notes: in vitro translated
Turning to B15, the “Binding to 1 nM KDR, %” value in assay [2] turned out to be 10%.

B16: 3′E4 PR4 (designed binder)
chain: EVVAATPTSLLISWRHPHFPTRYYRITYGETGGNSPVQEFTVPLQPPTATISGLKPGVDYTITVYAVTVGPNDRELIVPISINYRT
notes: in vitro translated
For the molecule B16, in assay [2], the “Binding to 1 nM KDR, %” value was found to be 12%.

B17: F12 (designed binder)
chain: EVVAATPTSLLISWRHPHFPTRYYRITYGETGGNSPVQEFTVPLQPPTATISGLKPGVDYTITGYAVTDGRNGHELMTPISINYRT
notes: 10Fn3 clone, Del 1-8
Consider B17, for which the “Binding to 1 nM Flk-1, %” value in assay [3] came out at 1%.

B18: 3F4 PR3 (designed binder)
chain: EVVAATPTSLLISWRHPHFPTRYYRITYGETGGNSPVQEFTVPLQPPTATISGLKPGVDYTITVYAVTMGYEDHELITPISINYRT
notes: in vitro translated
Consider B18, for which, in assay [2], the “Binding to 1 nM KDR, %” value amounted to 10%.

B19: 3D4 PR3 (designed binder)
chain: EVVAATPTSLLISWRHPHFPTRYYRITYGETGGNSPVQEFTVPLQPPTATISGLKPGVDYTITVYAVTVGWNDHELITPISINYRT
notes: in vitro translated
For B19, in assay [2], the “Binding to 1 nM KDR, %” value turned out to be 10%.

B20: 3G10 PR3 (designed binder)
chain: EVVAATPTSLLISWRHPHFPTRYYRITYGETGGNSPVQEFTVPLQPPTATISGLKPGVDYTITVYAVTVVHNGHEILTPISINYRT
notes: in vitro translated
For B20, in assay [2], the “Binding to 1 nM KDR, %” value was 10%.

B21: 3F5 PR3 (designed binder)
chain: EVVAATPTSLLISWRHPHFPTRYYRITYGETGGNSPVQEFTVPLQPPTATISGLKPGVDYTITVYAVTVAYNEHELYTPISINYRT
notes: in vitro translated
B21: the “Binding to 1 nM KDR, %” value in assay [2] amounted to 11%.

B22: 159Q(8)L (designed binder)
chain: VSDVPRDLEVVAATPTSLLISWRHPHFPTRYYRITYGETGGNSPVQEFTVPLQPPAATISGLKPGVDYTITGYAVTMAQSGHELFTPISINYRT
notes: also called clone 159
As a reminder, the Kd is the free concentration of one partner at which half of the binding sites on the other are occupied at equilibrium, for simple one-to-one binding. Lower therefore signals a tighter complex. Consider B22, for which the Kd in assay [4] is > 3000 nM.

B23: 2′G11-PR4 (designed binder)
chain: VSDVPRDLEVVAATPTSLLISWRHPHFPTRYYRITYGETGGNSPVQEFTVPLQPPTATISGLKPGVDYTITVYAVTGGQMNRVLMTPISINYRT
notes: in vitro translated
As to B23, in assay [2], the “Binding to 1 nM KDR, %” value turned out to be 12%.

B24: 2H12 PR3 (designed binder)
chain: VSDVPRDLEVVAATPTSLLISWRHPHFPTRYYRITYGETGGNSPVQEFTVPLQPPTATISGLKPGVDYTITVYAVTEGYQNHELSVPISINYRT
notes: in vitro translated
B24: the “Binding to 1 nM KDR, %” value in assay [2] amounted to 10%.

B25: 2H10 PR3 (designed binder)
chain: VSDVPRDLEVVAATPTSLLISWRHPHFPTRYYRITYGETGGNSPVQEFTVPLQPPTATISGLKPGVDYTITVYAVTLAPSARELMTPISINYRT
notes: in vitro translated
Turning to B25, the “Binding to 1 nM KDR, %” value in assay [2] came to 10%.

B26: 2′D5-PR4 (designed binder)
chain: VSDVPRDLEVVAATPTSLLISWRHPHFPTRYYRITYGETGGNSPVQEFTVPLQPPTATISGLKPGVDYTITVYAVTVAWNDHMLMTPISINYRT
notes: in vitro translated
On to B26, for which, in assay [2], the “Binding to 1 nM KDR, %” value was 11%.

B27: 2′A1-PR4 (designed binder)
chain: VSDVPRDLEVVAATPTSLLISWRHPHFPTRYYRITYGETGGNSPVQEFTVPLQPPTATISGLKPGVDYTITVYAVTSGHNDHMLMIPISINYRT
notes: in vitro translated
As for B27, the “Binding to 1 nM KDR, %” value in assay [2] was 11%.

The values are drawn from patent US20120283184A1 (published 2012).
